Patent US20100272721A1, “TREATMENT OF CANCER” (Biogen Idec MA Inc., priority 2005, published 2010)

B1: P2D10: exemplary murine anti-Tweak antibody; heavy chain variable domain SEQ ID NO:3, light chain variable domain SEQ ID NO:4 (antibody, listed as Mus musculus, V domains shown)
VH: EVQLVESGGGLVRPGGSLKLFCAASGFTFSRYAMSWVRQSPEKRLEWVAEISSGGSYPYYPDTVTGRFTISRDNAKNTLYLEMSSLKSEDTAMYYCARVLYYDYDGDRIEVMDYWGQGTAVIVSS
VL: DVVMTQSPLSLSVSLGDQASISCRSSQSLVSSKGNTYLHWYLQKPGQSPKFLIYKVSNRFSGVPDRFSGSGSGTDFTLKISRVAAEDLGVYFCSQSTHFPRTFGGGTTLEIK
B2: Tweak: TNF-like weak inducer of apoptosis, a member of the tumor-necrosis factor (TNF) superfamily of cytokines (protein, listed as Homo sapiens)
chain: MAARRSQRRRGRRGEPGTALLVPLALGLGLALACLGLLLAVVSLGSRASLSAQEPAQEELVAEEDQDPSELNPQTEESQDPAPFLNRLVRPRRSAPKGRKTRARRAIAAHYEVHPRPGQDGAQAGVDGTVSGWEEARINSSSPLRYNRQIGEFIVTRAGLYYLYCQVHFDEGKAVYLKLDLLVDGVLALRCLEEFSATAASSLGPQLRLCQVSGLLALRPGSSLRIRTLPWAHLKAAPFLTYFGLFQVH

Tests used:
[1] = test system: Human pancreatic cells (BxPc-3); experiment: BxPc-3 xenograft pancreatic cancer model; format: in vivo; conditions: BxPc-3 subcutaneous in nude mice; IP administration started after 2 weeks; versus control antibody (P1.17) or PBS; FIG. 2
Experimental: FIG. 2 is a graph showing growth of human pancreatic tumor cell line BxPc-3 in a xenograft animal model, with and without anti-Tweak antibody (P2D10) treatment.
Human pancreatic cells (BxPc-3) were injected subcutaneously into nude mice. After 2 weeks, when the tumors were […], the mice (9-10 per group) were treated with an anti-TWEAK antibody (P2D10), a control antibody (P1.17) or PBS, by IP administration.

[2] = test system: Human pancreatic tumor cells BxPc3, Panc1 and MiaPaCa2; experiment: cell invasion assay on matrigel-coated membranes in transwell plates; format: cell-based; conditions: Tweak 50 ng/ml; BxPc-3, Panc-1 and MiaPaCa; measured after 48 hours; FIG. 1
Experimental: FIG. 1 is a bar graph showing results from an invasion assay of human pancreatic cell lines with and without added Tweak (Tk), and in the presence or absence of an anti-Tweak antibody (p5g9). HGF is a positive control.
To measure the effect of Tweak on pancreatic tumor cell line invasiveness, cell invasion assays were performed. Human pancreatic tumor cells BxPc3, Panc1 and MiaPaCa2 were plated on matrigel-coated membranes in transwell plates. TWEAK was added to the medium, and the number of cells that invade was measured after 48 hours. BSA was used as a negative control and HGF as a positive control in these experiments.

[3] = test system: mammary epithelial line Eph4; experiment: 3-D culture model system of the mammary epithelial line Eph4; format: cell-based; conditions: Eph4 3-D culture
Source text: We detect Fn14 protein in human tumor cell lines and in xenograft and primary breast tumor samples. Fn14 expression is detected in the majority of human breast tumors but not in normal breast tissue samples. […] The capacity to promote proliferation, inhibit differentiation and induce invasion is consistent with a role for TWEAK in tumorigenesis.

| Molecule | tumor size [1] | invasion of human pancreatic cell lines (number of cells that invade) [2] | morphogenic phenotype (proliferation, invasiveness, functional differentiation) ([3]; TWEAK treatment) | matrix metalloproteinase MMP-9 expression ([3]; following TWEAK treatment) |
| --- | --- | --- | --- | --- |
| B1 | statistically significant reduction in tumor size | – | – | – |
| B2 | – | induced invasion | induces a dramatic branching morphogenic phenotype | significantly up-regulated |
